{
  "source": "the DeepSol protein solubility set",
  "data": [
    {"test": "soluble on expression in E. coli; label from the status in PepcDB or PDB records", "values": [
      {"sequence": "GERRIPESRILRREVVEATSAVAAALQIPARAPVIEMTRVRLIDGAPMLAEEIWLPYDRFAAFSRLELDSIGDLLYPVYEAHCNQIVASATETLTVEAIGPAHARLLRIEPGTPAVVIERLAYGYDRRPLEWRRSRGPASEFIYQAEIR", "soluble on expression in E. coli": "not soluble"},
      {"sequence": "MGSDKIHHHHHHETENVNCGQVLAGDTAYLKTVTGEYRIKIAENESLNMSCEAVMDRILSRDHVLRPLENGVAFARVVYMDYELIEKHVEMSYHPQNSFCFAIDKKAAKEFKERMQAMASCLPNVLLLPGRFFKNPIHDLSVDSHGHNTNLAHYNCLRALINKPGWNYAILLQNHDLITKSVYELEKIFNWLGGANDVAIRPELGRLDKKHFKWDPMSLKLFRNESEIDPVILNTTLKFAKGAVQSSLSRAAVDWMTRTVDLTTFIDQWNHGTYGVDEQFTQAFQISDFLGMPGHFTDKCIKKGIITEGITRFAQWTHGDQSKCASKKSRHGICIMGIEHLSMMAKSEHLMFNKVLPLFDYSIIECTAE", "soluble on expression in E. coli": "not soluble"},
      {"sequence": "MQKSIDDMINEVLAVKVEKLPKTQDFSDLQEVCASKLQIINKEMDEADRKLEETLEKRKLVEKQLEDLQEQYKVKEFAFSLQKEFQDELKKVAEEIF", "soluble on expression in E. coli": "not soluble"},
      {"sequence": "MAHTPTMLAAAAPFMPEATGVDPALDALLAGLQAHPARIDPKYLYDALGSSLFAAITQLPEYYPTRCEAEIFATHLEAIARHTGPVRTLIDLGAGDCAKAERLLPCLRPQRYVPIDISTDFLGQAVARVRRAHPWLDVLPLGRDLNAGLDLPEAIDAQGRLFFYPGSSIGNLDPDAALALLASLRAQAGVSGGLLIGVDRVKARAIVEPAYDDALHLTGAFNLNLLRHVNSVLGSDFDVRDWTHVALYNEPRSRMEMHLQARSDIRVRWPGGQRRFQADERIHTENSYKYTIERFVDLLRRAGYGDIRYWSDARDWFSVFSARA", "soluble on expression in E. coli": "soluble"},
      {"sequence": "MGSDKIHHHHHHLDLSPEDYYGSGNFWTKEAQVEGYMNGLHNNLRSSYTMFYVLGEARGGTSRYGTSSLGTSMSYSDPIKNNMLTKDNTGISNWYDLYGRIMQVNHFISEVSNGCSFLSESKKGFYLGQAYGLRALYYFMLYKTYGGVPLITDVKVLEGGKISADALYTERSTPETILKFIKSDLEASELNFGNNVTIDRAMWTKYATLMLKAEVYMWSAKVTTGDHQATGNSDLAIAQTALQPLINQFSLLDNFSEVFSKKANDEIIFAIRFKDGEATNWAGPFIYYGNIFEGQRYGRDGKLMQDTLDLKGTVGQFLHEYKKALWDSYDDEDMRRDATFMDHYGSAQKEGFGIAMKKGIGSVNSNNQRIFDTDIIVYRYADVLLMMAEIENALSGKCANYVNEVRKRAYGKNWHPQFAYTDGSYADNELTILHERDKEFVWEGKRWFDVVRMHDANGKSLAFSVAANYPNNETPDERVPLIKESEAHKLLWPIDVNTLNNDPKLEQTPGYDK", "soluble on expression in E. coli": "not soluble"},
      {"sequence": "MAEVLMYGLSTCPHCKRTLEFLKREGVDFEVIWIDKLEGEERKKVIEKVHSISGSYSVPVVVKGDKHVLGYNEEKLKELIRG", "soluble on expression in E. coli": "soluble"},
      {"sequence": "MSLSAPLPLCVIGAGCVGMRHVEVARRSPQIRLTAVVEPVETRRRALAESGLVAVATLEEVPRETRAAIVATPTPDHLATGLAALSRGWAVLVEKPTAGTMDDARVLLGAADRAGLPLYVGHHRRCHPFSRAAREALGGIGDLVGLQGLWSLRKHDSYYAEDWRRQAGAGPLMTNLSHEIDLLRFLVGDMVEVSALTSSARRGLVVPDTAALAFRFADGALGSFLISDAGASPWSFEAACAENPAIAVSGQDYIRITGTAGALEFPSLTRWGRSAPGEIEWSKPLARAAGAGFARVDPLLEQINRFAAVLEGAQDDVLCTGTDGNAALEMTLAAALSGKLGRPVRAHEVPGDYSGEGHHHHHH", "soluble on expression in E. coli": "soluble"},
      {"sequence": "MSLTNLFQDDSLTLHTDLYQLNMMKAYFDDGLHERRSVFEVFFRDMPFDSGFVVFAGLERIIHYMQNLRFTETDIAYLHDELGFDGPFLEYLRNFKFKGNILAAKEGEFVFKTEPILQVEASLAEAQLIETALLNIVNFQTLIATKAARIRSVIDDETFAEFGTRRAQEMDAAIWGTRAAYIGGCDSTSNVRAGKIFGIPVSGTMAHAMVQAYRDELEAFRSYAKTHFDSIFLVDTYDTLKSGVPNAIKVAKEMGDKINFIGIRLDSGDMAFLSKKARQMLDEAGFTEAKIFASSDLDEHTILSLKAQKAKIDSWGVGTKLITAYDQPALGAVYKMAAIADENDILQDSIKLSSNTEKVSTPGKKKVYRIITNEDGLKAEGDYIALADESLENVDKLTMFHPVHTYIMKTVENFTARELLVPIFQNGELVYDMPSLDEIKAYKEENLALLWDEYKRTVRPEQYPVDLSVKCWKNKMRNIEKVRKSVQLHSPVELDMPFEGHHHHHH", "soluble on expression in E. coli": "soluble"},
      {"sequence": "MGSDKIHHHHHHMKVTFGQQTTKVKQLADLLSQEISMGKYKSDCTLPSINKLSREYQVSRDTVFKAFIDLKDRGIIDSTPGKGYYVTNKLTNILLLLDEYSPFKYSLYNSFIKKLSINYKVDLLFHQYNERLFNTILRESIGRYNKYIVMNFDNEKLSPHLYKIDSSKLLLLDFGKFDKKDYSYVCQDFDDSFYHALAALKEHLRKYQRLVLLFPEDIKHPRSSCQYFNCFCQDYHIDSAIVENTDRIQVRKGEVYIAIRQIEVVNIIKQSRTTGLKCGEDFGLIAYNDTPAYEVIDQGITVLSINWEELGRKAAEFVLTGQEIRTYLPTEVHLRNSI", "soluble on expression in E. coli": "not soluble"},
      {"sequence": "MGSDKIHHHHHHMSSDPTSGAAITVEGLKKVFRIYERPRDRILQLILPGKRKFYREFQALDDVSFTVQKGQAVGIIGRNGSGKSTLLQMICGILHPTAGKVSCSGRVAALLELGAGFNPDFTGRENVYMNATLLGLTTAAVDERMDDILAFAEIGDFIDHPVKTYSSGMFVRLAFAVMAHVDAEILIIDEALAVGDAAFGQKCMRFLRRFRETGTILFVSHDTAAVIGLCDRAVWLDRGKMIIEGDAKTVCEAYYGHLFGGTVETPPEKTVEAITPSPAPEGPRPKVRAEDWVDGRREWINHSSLRNDIEVFTFDPSGTDFGAGGAEIEDVRLTDDDGHPYAWIVGGEPTRLRVTVRVRDELRSPIIGFFVKDRLGQTLFGDNTFMNEKKLSKPALPGQILEANFRFPMPILPPGTYSIAVAVADGTQTDHVQHHWLHDAVMVKSHVSHATAGLVGIPMFEVRFECHDPVASPSSSMDKVGIVD", "soluble on expression in E. coli": "not soluble"},
      {"sequence": "KVWAFDIQPQALNNTRCRLQEAGYSNVRLILDGHENLKQYIPKPLDAAIFNFGWLPGGDKSLTTRTETSIAALSATLSLLKENGMLIAVLYPGHENGKQEAEAIEQWAKNLPQEQFAVLRYGFTNRKNSPPYLLVFEKLRQK", "soluble on expression in E. coli": "not soluble"},
      {"sequence": "MEMAYDFAETKDTAIIFIYRPPVGDIQISPVLEGPRRLRLWNDITISLYKDVYPDIRLIESRSRVEVHLRKVEMVRWGGINGRPADKPQDDGKETMVEDSGDEENPSVMDLFSKIYQRSGDDVRRAMEKSFYESEGTVLSTDWDQVKSKKITRED", "soluble on expression in E. coli": "not soluble"},
      {"sequence": "ALSGGFIKGFAHLGVMQALLEHDIKPDIISGVSAGALAGVFYADGNEPHQVIEYFSGHKFQDLTKLVIPKKGLFDLCEFIDFLHTNLKAKNLEELQIPLIITATDLDHGRMVHFHRGSIAERVAASCCMPVMFAPVNIDGTNYVDGGLMMNLPVSTLRRICDKVVAVNVSPIMAQDYKMNIVSIAMRSFHFMFRANTFPEREKCDLLIEPYNLYGYSNTELEKAEEIFEQGYKIAND", "soluble on expression in E. coli": "not soluble"},
      {"sequence": "MSWTDERVELLKKMWGEGQSASQIAKELGGVTRNAVIGKVHRLGLSNRSSGAAPASTKAETKEKPAAATPRAEAKPKPAPRPEPLRAAPDPAPAPQPAEIKPIPARKQIIPAGQPLPPQPSANEISPEALAKVNEVEKKAKKLSLMELTERTCKWPVGDPATEDFWFCGLPVQQGKPYCEAHVGVAFQPMSSRRDRRRLEHHHHHH", "soluble on expression in E. coli": "soluble"},
      {"sequence": "MSLRTGKTNVIALVLSVDEELMGFTSQMVFGITEVLSTTQYHLVVTPHIHAKDSMVPIRYILETGSADGVIISKIEPNDPRVRFMTERNMPFVTHGRSDMGIEHAFHDFDNEAYAYEAVERLAQCGRKRIAVIVPPSRFSFHDHARKGFNRGIRDFGLTEFPIDAVTIETPLEKIRDFGQRLMQSSDRPDGIVSISGSSTIALVAGFEAAGVKIGEDVDIVSKQSAEFLNWIKPQIHTVNEDIKLAGRELAKALLARINGEAAETLQSISGPVWSSMAPKEGHHHHHH", "soluble on expression in E. coli": "soluble"},
      {"sequence": "MLPDVQLLKPEVPIGLSRVGATGIKKLVEVQREGKRPIILISTFDVFVDLPAHLKGVNLSRNFEVIDEVLETLTAKPIENIEDLVVEIADHLLKRHEYATKAEARMNSELIMRKRTPKTGQRTQEVVKIFGEATLGRDGSKVIMVGVEVTGITACPCAQELVKASSAERLAKMGFDEETIQKILDAIPVATHNQRGRATLKVQVTDSFKVPIAKLIDVAKSSMSYETYEILKREDELAVVEAAHRNTRFVEDGVRYMAMELLKTFPNAPDDILVFLRQENEESIHQHNVVAERFA", "soluble on expression in E. coli": "not soluble"},
      {"sequence": "MKDTLGFEHADRSLYYRFRNSLSSNLHLTHFDIETKLEVAKKFNLILNDQFVKDLNSTMNLIFEPNGCLASYTWKTDFLDYTLNPMELIIPYQSVIPSKTVPYRKRRMNDLEDLRKIKECSKRAFISNSDQSEVPSTSMLNSMKEMITEAVETSNKKLIEELKTSNEALVAQVANFKSKHIEQSSGKPGMRAYLEGLKGFLHHLNMPELADIKVRLNTLEKDLGDTDQPIPVQSIHSVLDIGLKLIGG", "soluble on expression in E. coli": "not soluble"},
      {"sequence": "MGSDKIHHHHHHMTINFNRIYVIQSLSKANGDELTGQQLFDDVLQYFNTKYGDKDARIFNVDNKKELLHALENIKSHCETDGIKPIIHFEIHGLEDKTGLSLNQEDVNWGDIYVKFIEINAASKWNLFITMGVCFGNYSMLLIRPSLPAPFTGILGSFEELFEWDLYIRYNAFYQELLNSLDFEKALEALHDSNPALPDDYRYINSEQTFKNVYQKYFDTQFSDVKIKERFNLTIAEEKISFTNRNIKRQFYSKFRTNLLNTKKEFFIKDKRKFFMFDVFPGHQYIYCVNWEPNYH", "soluble on expression in E. coli": "not soluble"},
      {"sequence": "MYDKILKMLTDTIKQFSDAPIYLDNVMQSSEPFYFVLSVEESMTDNVGQNVQNKAYNVDIALVDSKKDKQLVKSLTESCGAFFNVLNLDGNELFPEDYQTFKTDGIQHINFNVAFPQLIEWSEK", "soluble on expression in E. coli": "not soluble"},
      {"sequence": "MSLPAKTLVQAAANSGLRAVSVRHSSQAPKVALLGAAGGIGQPLGLLLKQDPLVAHLALYDVVNTPGVAADLSHIDSNAKVTAHTGPKELYAAVENADVIVIPAGVPRKPGMTRDDLFNTNAGIVRDLAAVIAKASPKALIAIITNPVNSTVPIASEVLKKAGVYDPKRVFGVTTLDVVRSQAFVSELKGHDASKTVVPVVGGHAGITIIPLLSQVKPSTKFSEEEISKLTPRIQDAGTEVVNAKAGAGSATLSMALAGARFANALVRGIKGEKNVQCAYVASDAVKGVEYFSTPVELGPNGVEKILGVGKVSAYEQKLIDASVPELNKNIAKGVAFVKGN", "soluble on expression in E. coli": "not soluble"},
      {"sequence": "MSLTKSSKYDTAFLKENMMGPNAIKIIEELLESLKLEEGMRVLDLGCGKGLTSIFLAKEYGVTVFATDLWISATENYERIKSMGLEDKIIPIHAEAHDLPFAQEYFDVAISVDAYHYFGIEEDYLTKHLAPLVKKGGKIAVAVPGLKKEFENGVPEKLQPYWFEDMTLTLHSLDWWYNLWKKADSVSIEECKELKCLEETWQDWLSCDNDYARRDIGMMEAEGGNYFNLVSIIATRLEGHHHHHH", "soluble on expression in E. coli": "soluble"},
      {"sequence": "MSLKEYKSKIEFSVYSTSGMKTRMEDYYLCIKNMNKMIQKEKKELTYFGVFDGHVGTSAADYCNFKLYNEIVRSKSFPKNIENAIQDGIINVENGFKEIAMKTKVNAGTTLAIVMIYDNTIYTANVGDSEIVVCYNDGSYVVTSEKHNPSVDKEKARIESAGGKVFYNHGWRVDGLLGVSRSIGDESMKKYVICQPKIWSKAIDSSFQFIIVACDGFWNVFKYEDAINLARNYLFNYSFSNEEDKDSNGIILPRNKGDVSRYLIDIALKRQSFDNITVTICYFNEGHHHHHH", "soluble on expression in E. coli": "soluble"}
    ]}
  ]
}
